Measurements taken from patent publication US20190030139.

Legend:
USP10 S76 peptide = test system: T1, USP10 S76 peptide
T1 sequence: TLPRTPSYSISST

Substance: Purified AMPK (Upstate Biotechnology)
- initial rate of phosphorylation (in vitro kinase assay, 32P incorporation) (SAMS peptide (Abcam)): 95±18 pmol/min/reaction mix
- maximal stoichiometry of phosphorylation (SAMS peptide (Abcam)): 0.35±0.02 mol/mol
- initial rate of phosphorylation (in vitro kinase assay, 32P incorporation) (USP10 S76 peptide): 155±36 pmol/min/reaction mix
- maximal stoichiometry of phosphorylation (USP10 S76 peptide): 0.46±0.04 mol/mol

Substance: USP10CA (catalytically inactive CA mutant, recombinant)
- in vitro deubiquitination assay, immunoblot (FIG. 3H) (Ubiquitinated AMPKα2): the catalytically inactive CA mutant could not
- in vitro deubiquitination assay, immunoblot (FIG. 4C) (Ubiquitinated AMPKα1): the catalytically inactive CA mutant could not
